This assay addresses Fcγ receptors on THP-1 cells (human (endogenous in THP-1)) (UniProt P12314). Description: retention of opsonized erythrocytes on adherent THP-1 cells.

Drawing on PMC9213077, this text covers concentration for two substances.

UniProt P12314, sequence (P12314 16-374): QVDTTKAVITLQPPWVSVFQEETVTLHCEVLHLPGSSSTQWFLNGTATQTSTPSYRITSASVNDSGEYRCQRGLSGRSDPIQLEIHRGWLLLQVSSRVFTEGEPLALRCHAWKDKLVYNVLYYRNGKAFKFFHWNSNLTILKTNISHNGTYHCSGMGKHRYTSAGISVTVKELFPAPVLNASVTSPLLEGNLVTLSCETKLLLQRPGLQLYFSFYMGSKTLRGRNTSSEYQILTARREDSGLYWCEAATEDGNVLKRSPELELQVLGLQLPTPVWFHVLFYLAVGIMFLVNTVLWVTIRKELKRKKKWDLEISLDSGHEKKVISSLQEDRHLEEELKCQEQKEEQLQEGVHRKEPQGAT

Take “single-cleaved rabbit antihuman erythrocyte IgG generated by imlifidase (antibody)”: the concentration at which erythrocyte retention occurred was found to be 5 µg/mL.
With “rabbit antihuman erythrocyte antibody (Rockland; 209-4139), intact IgG”, the concentration at which erythrocyte retention occurred amounted to 0.6 µg/mL.
